The results in this text go back to patent US12180286B2, “Anti-peripheral lymph node addressin antibodies and uses thereof” (The Brigham and Women's Hospital, Inc., priority 2019, dated 2024).

For one assay, the system named is 4T1 breast tumor cells. Nature of the assay: 4T1 breast tumor growth model. It counts as in vivo, BALB/c-WT mice. The note with it: equal to 160 ng free taxol every two days; n=12.
The subject of the next assay is 4T1 tumor cell lines. Briefly: 4T1 breast tumor liver portal vein metastasis model, survival. In kind it is in vivo, mouse. The note with it: 160 ng every other day intraperitoneally for 20 days, starting 4 hours post-implantation. The method, then:
To investigate the effect of MHA112-Taxol on tumor metastasis, 4T1 tumor cell lines were gently injected into the portal vein (1×10^4 cells per mouse) of mouse liver. Starting 4 hours post-implantation, 160 ng of free Taxol or MHA112-taxol were administered every other day intraperitoneally for 20 days. Survival was monitored every day.
(§1) Glutaric anhydride (100 mg, Sigma-Aldrich) and taxol (33 mg, LC laboratories) were prepared in a 4 mL vial dried under high vacuum for 24 hours and dissolved in 1 mL of pyridine. The solution was stirred at room temperature under Ar atmosphere for 2 hours. The reaction was quenched by removal of solvent under high vacuum for 2 hours. 2′-Glutaryl taxol was purified by a reversed phase HPLC (Phenomenex Luna 5 μm C18 250×10.0 mm, flow rate 2 mL/min, UV 250 nm detection) with a gradient solvent system (15% to 75% ACN/H2O with 0.1% formic acid for 40 minutes). 2′-glutaryl taxol (0.2 mg) dissolved in DMSO (Thermo Scientific Fisher) was activated with 1-ethyl-3-(3-dimethylaminopropyl)carbodiimide hydrochloride (EDC, 0.4 mg, Sigma-Aldrich) and Sulfo-NHS (N-hydroxysulfosuccinimide) (1.1 mg, Thermo Scientific Fisher) for 15 minutes at room temperature in MES buffer (pH 6.0, Thermo Scientific Fisher) (final solution; ˜1 mL in 10% DMSO). The EDC was quenched by 2-mercaptoethanol (1.4 μL, Sigma-Aldrich) for 10 min. […]

In assay [1] the test system is 4T1 tumor-draining lymph nodes (TDLNs). Briefly: Immunostaining of 4T1 tumor-draining lymph nodes (TDLNs). In kind it is in vivo, mice. The note with it: 4T1 TDLNs, fluorescence micrographs.
Source text: Thus, the effect of the LN delivery of MHA112 in the tumor population in the LN was investigated. The extent of MHA112's ability to restore the overall structure of LN was also investigated. […] 4T1 tumor-draining lymph nodes (TDLNs) were cut by cryo-sectioning and stained with anti-HEV (sc-19602, SCBT), anti-LYVE1 (ab14917, Abcam), anti-Pan-Cytokeratin (C2931, Sigma), anti-collagen I (ab34710, Abcam), anti-collagen IV (ab6586, Abcam), and anti-laminin (ab11575, Abcam). […] The stained tissue sections were visualized using an EVOS™ FL Auto 2 Imaging System. […] The structure changes of TDLNs was also examined.
The test system of assay [2] is Panc02 pancreas tumor cells. Briefly: Panc02 pancreas tumor model, survival. It counts as in vivo, mice. Conditions: 160 ng every other day intraperitoneally for 20 days, starting 4 hours post-implantation. The method, then: Mice were anesthetized with isoflurane, and Panc02 pancreas tumor cells were gently injected in pancreas of mice. Two million cells (2×10^6 cells) were injected per mouse for Panc02 tumor model. Starting 4 hours post-implantation, 160 ng of free Taxol or MHA112-taxol were administered every other day intraperitoneally for 20 days. Survival was monitored every day.
as §1

In assay [3] the test system is CHO cells expressing PNAd (CHO-PNAd). Briefly: Cell-based ELISA binding affinity. The method, then: To compare the affinity of MHA112 with MECA79, cell-based ELISA was performed. CHO cells expressing PNAd (CHO-PNAd) (2×10^4) were coated onto 96-well plates and incubated overnight at 37° C. After five washes with phosphate buffered saline (PBS), the plates were fixed with 1% paraformaldehyde (PFA) and blocked with 3% bovine serum albumin (BSA). MECA79 and MHA112 were serially diluted from 1 ng/ml to 300 μg/ml. After five washes in PBST, horseradish peroxidase-(HRP-)conjugated goat anti-mouse and anti-rat secondary antibodies were added at a 1:10,000 dilution and incubated for 1 hour at room temperature. Binding was detected with the addition of TMB (3,3′,5,5′-tetramethylbenzidine) substrate, and the reaction was stopped by adding TMB Stop Solution (N600, Thermo Scientific). Absorbance signals were read at 450 nm.

Assay [4] deals with high endothelial venules (HEVs) of mice lymph nodes (LNs). Nature of the assay: Immunofluorescence staining of HEVs in mice lymph node sections. In kind it is binding. Conditions: hybridoma supernatant. An excerpt:
(§2) Two of GlcNAc6ST1/2/4 triple knock-out (KO) mice, which lack the peripheral lymph node vascular addressin (PNAd), were immunized with Chinese hamster ovary (CHO) cell lines expressing CD34 decorated with sialyl Lewis^X (sLeX)-type glycans. MHA112 single hybridoma clone was identified by HEV immunofluorescence staining. The supernatant of MHA112 hybridoma culture was collected and used to stain mice lymph nodes (LNs) and human tonsil section.
(§3) Two of GlcNAc6ST1/2/4 triple KO mice, which lack the PNAd, were immunized with CHO cell lines expressing CD34 decorated with sLeX-type glycans. After the 3rd immunization, mice were sacrificed for hybridoma. Around 500 single clones were screened by HEV staining. Monoclonal antibody MHA112 against mice and human HEV was identified.
(§4) Fresh LNs were embedded in tissue-freezing medium. Cryostat sections (8 μm thick) were cut for imaging by fluorescence confocal microscopy. MHA112 was used for tissue staining as primary antibody. Alexa Fluor 488-conjugated anti-mouse IgM was used as secondary antibody. DAPI was used to stain the cell nuclei.

The subject of assay [5] is high endothelial venules (HEVs) of human tonsil. Nature of the assay: Immunofluorescence staining of HEVs in human tonsil section. In kind it is binding. The note with it: hybridoma supernatant.
Source text: as §2, §3, §4

The test system of the next assay is T cells homing to LNs. Nature of the assay: Blocking of labeled T cell homing to LNs (flow cytometry). The note with it: 200 μg i.p. 2 hours before T cell injection, 19 hours after transfer. It counts as in vivo, C57BL/6 mice. The method, then: To test whether MHA112 mAb can block T cells homing to LNs in vivo, T cells were labeled with fluorescein isothiocyanate (FITC) florescence dye and transferred into naïve mice, and their distribution assessed 19 hours later. MHA112 (anti-HEVs) reduced the number of transferred T cells that entered Axillary (Axi), Inguinal (Ing) and Brachial (Bra) LN by over 25% (FIG. 4). […] Labeled T cells that entered spleen were not changed in three groups (FIG. 4).
Spleens were harvested from three C57BL/6 mice. Single cell suspensions were prepared, and cells were positively enriched for T cells with MACS reagents and columns (Miltenyi Biotech, Bergisch Gladbach, Germany) according to the manufacturer's instructions. For injection, T cells were labeled with CellTracker Green (Thermo Fisher) and resuspended in sterile saline, and 5 million T cells were injected in 100 μl each mouse. Blocking antibodies MHA112 and MECA79 were administered intraperitoneally (i.p.) at 200 μg in 200 μl per mouse 2 hours before T cell injection. 19 hours after transfer, mice were euthanized and LNs were processed for flow cytometry.

Protocol for 4T1 breast tumor cells: Mice were anesthetized with isoflurane and underwent subcutaneous injection with 4T1 breast tumor cells in the mammary glands (1×10^5 cells per mouse). Starting at 9 days post-implantation, free Taxol or MHA112-Taxol were administered every other day intraperitoneally for 24 days. Tumor growth was monitored two times per week by digital caliper.

As to `CC(=O)O[C@H]1C(=O)[C@@]2(C)[C@H]([C@H](OC(=O)c3ccccc3)[C@]3(O)C[C@H](OC(=O)[C@H](O)[C@@H](NC(=O)c4ccccc4)c4ccccc4)C(C)=C1C3(C)C)[C@]1(OC(C)=O)CO[C@@H]1C[C@@H]2O` [free Taxol, taxol], the “growth of 4T1 mouse breast tumors versus control group treated with PBS” value with 4T1 breast tumor cells is listed as “significantly slower growth”. Further, the figures for the “median survival time (MST)” value (in the assay with 4T1 tumor cell lines; in assay [2]) were 37 days and 32 days, respectively. The “expansion of HEVs and lymphatics (LYVE1) in TDLNs” value in assay [1] is on record as “expanded”.

B1: MHA112: anti-PNAd monoclonal antibody, mouse IgM, VH SEQ ID NO:2 and VL SEQ ID NO:7 (antibody, V domains shown)
VH: QVQLKESGPGLVAPSQSLSITCTVSGFSLTSYGVDWVRQPPGKGLEWLGVIWGGGSTNYNSALMSRLSISKDNSKSQVFLKMNSLQTDDTAMYYCAKHSKGGYFDVWGTGTTVTVSS
VL: EIVLTQSPAITAASLGQKVTITCSASSSVSYMHWYQQKSGTSPKPWIYEISKLASGVPARFSGSGSGTSYSLTISSMEAEDAAIYYCQQWNYPLITFGAGTKLELK
modifications: mouse IgM constant regions; MHA112 Heavy chain; MHA112 Light chain
As to B1, in assay [3], the “binding affinity higher than MECA79” value is 30%. Also, in assay [3] (fitting curves, absorbance 450 nm), binding was put at a Kd of 0.97 nM. The “staining of HEVs structure” value in assay [4] and in assay [5] was “stained” throughout. Also, the “reduction of number of transferred T cells that entered Axillary, Inguinal and Brachial LN” value in the assay on T cells homing to LNs was “over 25%”. Besides, in the assay with T cells homing to LNs (of PBS controls), the “reduction of number of T cells that entered mesenteric LNs” value is given as “around 12%”.
